assay: soluble on expression in E. coli; label from the status in PepcDB or PDB records

Sequence | soluble on expression in E. coli
QGHMPSDSKKPTIIYPCLWDYRVIMTTKDTSTLKELLETYQRPFKLEFKNTSKNAKFYSFNVSMEVSNESERNEIFQKISQLDKVVQTLGS | soluble
MSVRRLADDVYQPAEFSFTKENQIWVKNTIEKYPVGREQSAVIPLLMRAQEQDGWVTRAAIEHIAQILSMAYIRVLEIATFYTQFQLQPVGTKAHIQVCGTTPCMLRGSEELIKVCQKKIHHKPFVTNQDGSLSWEEVECLGACVNAPMVMIFKDTYEDLTAKRLEEIIDAFEAGKGAEIAVGPQNSRKSSEPISGLTSLIDEKEQKSLKSLKKKDKKEMGA | not soluble
MGSDKIHHHHHHMISQNSCQINESDLKNLKDWFYRYVRSFYSSDSIIQQAILLKEKHSLRVCNEILNIGKKLDLSHNALRLAEVMALFHDIGRFQQFVRYQTFVDQKSENHGELGVRILKQEKALAALDRDARELILKAISYHNRLTIPENESPICTYFSRLLRDADKLDIYYVVTTCYNSNGTERKAAVELDLPDTPEVSGEILISLIEEKMISLHQLKSLNDFKLLQMAWVYDINYLPTFRMIYERNYLRKIRDTLPGTEEIEQVYCKLISFLKAKL | not soluble
MGSDKIHHHHHHMRFPMMELDEKIYRFFENRGRDVTVEYLNLGLGYTAVTTSDGGIGIAYTCFGAKESCSFMNSYYDFEGRPAVELLEKIKSTHPLERTMALALVNALNYEYALSLPEDKENRALFESFGIGEKTRVAMVGYFAPIAGMLGKMGALLEVIDISKKIGHQADFYDRLENWAQVAFITSTSILNSTTEDILRHAGKGVKTVMLGPSTPMIGEVFSHLPVHMLAGTVPLEKEKVLKAIRHGFGTREIQRFSRKSYLALF | not soluble
MAHHHHHHMEEESHALKDPWFVSYIPQLTTEIVKNNYEGDWNLAKEALQQPLDYVRTVEEFWSTLNSLPKLHQLESSSTFVFARNNVDASYEAFPNGTRIIVDIRKAAMAEKATAVILSSVIGESVSQEVCGGKPICDVLRLSSRPNKESPELVRLEVWLSDQTYGKAVLAYVRKALNDVGMSQPHVIFGESLFEKEKKKKGK | soluble
MTSQRCRRRYFMMIRERIEEKLRAAFQPVFLEVVDESYRHNVPAGSESHFKVVLVSDRFTGERFLNRHRMIYSTLAEELSTTVHALALHTYTIKEWEGLQDTVFASPPCRGAGSIA | soluble
GMDKLTHYRHTIQEIIKKYYDLSNSQPATATETKISDDLPDTVGDRLIIDEQRDQYLWLCCGWDGKKRVQHIILYLQIQNGKIWIEEDSTNLAIVDEMLVAGIPQTDIILGFHHPSKRGLTEFAIA | soluble
MSLLVIPAIDLQSGRCVRLKQGRFDQVTQFSVFPIERALHFAKLGAKRLHVVDLDGARSGKMQQLELICSMQKTGIPIQAGGGIRSIEQALECSNAGISQLVIGSLAITNPDLTIQIIEKIKPENIVLALDVRVDTKVPLLAINGWQNNSTSSLWEVVSYYENYGIKNILCTDIACDGMMNGPNFDLYQQAVEYFPQIAWQASGGVRHMQDITTLNSLGISAVILGLMLYQDHMNLEELLEGHHHHHH | soluble
MNVLRSGIVTMLLLAAFSVQAACTWPAWEQFKKDYISQEGRVIDPSDARKITTSEGQSYGMFSALAANDRAAFDNILDWTQNNLAQGSLKERLPAWLWGKKENSKWEVLDSNSASDGDVWMAWSLLEAGRLWKEQRYTDIGSALLKRIAREEVVTVPGLGSMLLPGKVGFAEDNSWRFNPSYLPPTLAQYFTRFGAPWTTLRETNQRLLLETAPKGFSPDWVRYEKDKGWQLKAEKTLISSYDAIRVYMWVGMMPDSDPQKARMLNRFKPMATFTEKNGYPPEKVDVATGKAQGKGPVGFSAAMLPFLQNRDAQAVQRQRVADNFPGSDAYYNYVLTLFGQGWDQHRFRFSTKGELLPDWGQECANSH | soluble
MKSVGLITEYNPFHNGHQYHINQSKKLTNADVTIAIMSGNFVMRGEPAIYNKFTRAKMALSTADLVIELPATASLSSGDHFAELAVKVADYMSVDTIAFGSENNDIKTLKQLAHSINEIEQSESFSQKVKEGKSYPRIISELLEHHEALASPNNILGISYLKAIAKNAKNINAISIKRENAQHHDSLIQHHQFASGTSIRTSIISQDDHWHHVVPKDIQHLYVTPHITLNQIFPYLKYQIIAMTTDSLKNIYTVTEGFENRLKSNIYEATDFHHFVKLLKTKRYTYTHIQRLLMNVLLNIKPTDVTSNIHAVKVLAMNDRGRQYLKHLKTAFPERQYITNINKSNAHYFTNEIKATHIYNAISGQQQTDFNTPVIQQYR | not soluble
LSAGALKATASQQDKPESQYGLAGQLQAAAGQQGVTAQQQTRAEAAQQAQLPLQLTKELANEQVAEKVQMMMSKNLKNLDIRLDPPELGRMQIRMTMNNDLANVHFTVTNPQARDIIEQTLPRLREMLAQQGMQLADSSVQQQS | not soluble
SRENLGRIQFSVGYNFQESTLTVKIMKAQELPAKDFSGTSDPFVKIYLLPDKKHKLETKVKRKNLNPHWNETFLFEGFPYEKVVQRILYLQVLDYDRFSRNDPIGEVSIPLNKVDLTQMQTFWKDLKP | soluble
MSRDARWKALLELLVERGRLDVEEAATELEVSAATIRRDFDRLAEQQMLVRTRGGAVVHGVSYELPLRYKTARRASEKQRVAQAVAALVAPGEAVGLTGGTTTTEVARALAVRADLASGTPALTVVTNALNIANELAVRPQFKIVVTGGVARAQSYELIGPLADGVLGQVTLDVAVLGVVAFDVAHGAAAHDEAEAAINRLLCERAERVVVAADSSKLGRRAFARICATESVDTLVTDGAADPELVGRFEEAGVRVVTALEHHHHHH | not soluble
MQYVKIKDAIVEQIDAGMLMPRQKLPAERKLAESFDTTRVTLREALSLLEAEGKIYREDRRGWFISPAPLRYDPTQTLNFTNMALAQNRQPKTELVSAKAVIANKQATRLLKLKPFSDVYRVDRVRYLDNRPVVYVTNYIRPELFPNLLDFDLSQSLTDLYREHYATQYQTIHYRISTSSLLGEMAQALRATSGTPAMVVERVNYNQKGELIDCDIEYWRHDAITIESIAELKR | not soluble
MSTPLSRVITNEIFRVPARRKPKPAVKPSDIPTLKDYTARLVDQKWLRLAARRKSA | not soluble
MAHHHHHHSLDSLGAINKIQDFLQKQEYKTLEYNLTTTEVVMENVTAFWEEGFGELFEKAKQNNNNRKTSNGDDSLFFSNFSLLGTPVLKDINFKIERGQLLAVAGSTGAGKTSLLMMIMGELEPSEGKIKHSGRISFCSQFSWIMPGTIKENIIFGVSYDEYRYRSVIKACQLEEDISKFAEKDNIVLGEGGITLSGGQRARISLARAVYKDADLYLLDSPFGYLDVLTEKEIFESCVCKLMANKTRILVTSKMEHLKKADKILILHEGSSYFYGTFSELQNLQPDFSSKLMGCDSFDQFSAERRNSILTETLHRLSLEGDAPVSWTETKKQSFKQTGEFGEKRKNSILNPINSIRKEG | soluble
MYNVIGVRFKKAGKIYYFDPNGFHIEHDSCVIVETVRGVEYGQVVIANKQVDEHDVVLPLRKVIRVADDRDLLIVEENKQEALSAFDICQKKVIEHGLDMKLVDVEFTFDRNKVIFYFTADGRVDFRELVKDLASIFKTRIELRQIGVRDEAKMLGGIGPCGRMLCCSTFLGDFEPVSIKMAKDQNLSLNPTKISGLCGRLMCCLKYENDEYETAKEQLPDIGEMITTANGPAKVVGLNILERVLQVELINREKVIEYTWEELLEEGVVSAQTTDLEHHHHHH | not soluble
MSLYFLLQKVILPNIDLCTEEQLYFRTQGGKYNYTSRNLLVPRHKVAYFDTFFNAFSIKKWKKYTTLTSLFLRVNIIGRGTITVRHKENGVIRVLKQIDFKSSCNISDEIEIDISKINFGYIYVEWQSDEDSVLNGFELLTKDHVSKSSMALVITTYNRKEAVTKTINRINKTLLTQSEFKDRFKLIVVNNGEAINHPSGNGIIVINNENLGGSGGFMRGLIEAGKINDVKHVIFMDDDGSCEIESICRTHAFLLMAKDKNTVVTGCMLFEDNPAIIHESGAIWHRDFLHYPDKHYLDAREIDSLDTFDNERKIGYGGWWFFAFNINAIEYYSFPFFVRGDDLLFGYMHKKHNIVTLNGVASWQMDFERKISVLNSYLNFRTVAVPALISKREGHHHHHH | not soluble
MQNETRTLQLDPHLHIEAYRFKGIMQKFPNHFHDYYVIGFIEKGQRYLACQDQEYIINPGDLLLFNPRDTHSCEQIDGRTLDYRCINVMPDIMEKAVKEITGSGHLPYFSQHVLFRHELTASLQELHILISEEKQALRKEELFLHLLEELIRHYSDVTFLSSVPEPSDEVKMVCE | not soluble
MSLARNVPEFGMESYRIEVGRMHGVKPANIVGAIANEAGLESRYIGRIDIRDDHSVLDLPAEMPHEILQHLKKVWVSGQQLQMRRIDTTETEGHHHHHH | soluble
MDRVLPFRFAEEEGVFWLLDQRRLPQEEVYVPVRTAREMAQAIRDMVVRGAPAIGVSAAFGMVLAHLAGEDLEEADRRLRASRPTAVNLFHALDRMRPFWGDLAGSLLEARRIWREVEETEAAISRHGAQVLWGQVLTHCNTGPLATGGYGTALGAIVEAYRLGRVRHVWVDETRPYLQGARLTAYELQKAGVPATLITDGMAGWLMARGAVDAVVVGVDRMALNGDFANKVGTYALAVLAHHHGIPFYAALPLSSVDPRLASGEGIPIEERSPEEVVAFRGVRIAPEGFPAYHPAFDVTPHRYLTGIITEKGVLYPPFAEGLRRALGLD | soluble
RQEQRRTDHELREQLHFRQALIDAIPAPIYFMDTTGIFLGCNKAFEAFSGHTQDEIVGKTIYDLMPPSLAKHTDSADRELFEHGGIQIYESVISFADGALHDVIFYKATFTTTEKNIGGLVGTILDIT | not soluble
MGSDKIHHHHHHMKELRIDPITNDVVIFATDRLKRPLDTADIPNEDEETNEYDEECPFCKGNEAHATDALFEIDSEEGWLVKSVYNKFPIIDDMARDVYGVHEVMIESDKHNRSFYNMSQKEFEDVFFMYRNRFRDLSKDDKVEYVSIFKNFLRKAGASLMHPHAQILSMSFIPPEITNELLVSKEYYDSNKSSLYDDLIENEISLDRRVVYNGEAFLVLIPYATKYSGEVRIIFKDKIEFGELNDNNIQELSTIFEKLFKKLYNINGYMPFNLCIHTHPTKIETKSYFNVHMHIIPRKYNFGGFELGTNMYVSSMSPEDLTKKLKID | not soluble
MDPSAAFRSFPTQERGILLADTYKPLSLYAADVQVRLSGSAAQVILSLEYVNETNKLVRAIAAYPAPSSYQLQCATLQGPAREISARSYVRSRPLRSVEAGSALCAEPLVDTAVSTVATQSVPWDVSPGESVLMKAVYHAPISVTHRTGEIVFTLPASLIPAVQRPPDVQRGYMKFLDARSQLRHLAQQGGSLRVCVDAQLLVPLRGVVTLEKGPEVVPEMGVTGTSVNVHYVGDTHFQMTYHDDLPKTAYMQVPLCVRAPVAETSEPLRLHTVAASLPPTSAPSDHPTAEVAAAMVVSIAPFLANCPINAEIMFVVDVHSAALGARAAESVMSAIRSLNGTASLVNVILCRDAHRGGAVSLLPDESVQSSAVPQESMLAFMKEEGVQTSSSKGPATLSPHLPSLLHDITTGRGITTSIPAGYVRNVIVLSDGGSQPVDADAVAMVCQVTNAGRACRVHAVALAATADHAVLEALAEACGGCFASAAASGSSEAGGSAVDEAVQAAVSAAAVPCLVDIRTKWDVTGGDIAVASSVQAAAAAPSPLRMATDADGGSIACVPHGTQRLLYGLLASANSQLAVRVFGRVGEMRLEYTASSAIQPPPQSDAADTAAAADATDEESGRAPPMLMTAAAAARIAYLTHILHTTSEDEALEVIALSKRYMLPSPYTTLTDGNSGPGGEHKLGGVVHLPSMQAAAHVELAIRARRVELQAAAALRALRPA | soluble

Reference: the DeepSol protein solubility set
